Measurements taken from paper PMC3779530 (Innate immunity, 2013).
Where two headings read alike, the source gives them in different places.

B1: metabolically labeled LOS·MD-2 (monomeric complex of Neisseria meningitidis lipooligosaccharide and recombinant human His6-MD-2) (ligand)
chain: QKQYWVCNSSDASISYTYCDKMQYPISINVNPCIELKRSKGLLHIFYIPRRDLKQLYFNLYITVNTMNLPKRKEVICRGSDDDYSFCRALKGETVNTTISFSFKGIKFSKGKYKCVVEAISGSPEEMLFCLEFVILHQPNSN

Columns and labels:
TLR4 ECD (Homo sapiens) [1] = target: TLR4 ECD (Homo sapiens) (UniProt O00206); settings: cited from earlier work
Target sequence in this assay (O00206 24-631): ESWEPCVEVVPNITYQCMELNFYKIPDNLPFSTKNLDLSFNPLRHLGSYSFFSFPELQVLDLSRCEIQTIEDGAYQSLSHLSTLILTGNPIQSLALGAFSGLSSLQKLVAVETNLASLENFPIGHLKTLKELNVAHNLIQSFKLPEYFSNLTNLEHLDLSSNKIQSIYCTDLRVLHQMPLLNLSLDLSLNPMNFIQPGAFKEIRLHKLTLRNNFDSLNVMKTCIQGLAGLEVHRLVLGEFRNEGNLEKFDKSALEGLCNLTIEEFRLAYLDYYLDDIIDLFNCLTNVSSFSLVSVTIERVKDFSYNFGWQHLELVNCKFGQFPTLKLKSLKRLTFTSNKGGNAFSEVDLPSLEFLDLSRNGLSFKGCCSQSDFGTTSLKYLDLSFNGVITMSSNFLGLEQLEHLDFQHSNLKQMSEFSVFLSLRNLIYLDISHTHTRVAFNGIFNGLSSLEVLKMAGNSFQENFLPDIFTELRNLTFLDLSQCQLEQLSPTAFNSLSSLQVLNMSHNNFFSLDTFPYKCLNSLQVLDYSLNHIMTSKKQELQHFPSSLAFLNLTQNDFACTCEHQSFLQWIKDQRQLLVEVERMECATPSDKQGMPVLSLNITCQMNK

TLR4 ECD (Homo sapiens) [2] = target: TLR4 ECD (Homo sapiens) (UniProt O00206); settings: cited from earlier work; remark: listed apart in the source
Target sequence in this assay (O00206 24-631 D299G/T399I): as the sequence (O00206 24-631) above, with D276G, T376I counted along it

[3] = target: full-length wild-type TLR4 on transiently transfected HEK293T cells (human, UniProt O00206 24-839); test: radioligand binding
[4] = target: FLAG-tagged TLR4 ectodomain-vlr-Fc protein (not stated | hagfish) (UniProt O00206); test: radioligand binding

Sequence of full-length wild-type TLR4 on transiently transfected HEK293T cells (O00206 24-839): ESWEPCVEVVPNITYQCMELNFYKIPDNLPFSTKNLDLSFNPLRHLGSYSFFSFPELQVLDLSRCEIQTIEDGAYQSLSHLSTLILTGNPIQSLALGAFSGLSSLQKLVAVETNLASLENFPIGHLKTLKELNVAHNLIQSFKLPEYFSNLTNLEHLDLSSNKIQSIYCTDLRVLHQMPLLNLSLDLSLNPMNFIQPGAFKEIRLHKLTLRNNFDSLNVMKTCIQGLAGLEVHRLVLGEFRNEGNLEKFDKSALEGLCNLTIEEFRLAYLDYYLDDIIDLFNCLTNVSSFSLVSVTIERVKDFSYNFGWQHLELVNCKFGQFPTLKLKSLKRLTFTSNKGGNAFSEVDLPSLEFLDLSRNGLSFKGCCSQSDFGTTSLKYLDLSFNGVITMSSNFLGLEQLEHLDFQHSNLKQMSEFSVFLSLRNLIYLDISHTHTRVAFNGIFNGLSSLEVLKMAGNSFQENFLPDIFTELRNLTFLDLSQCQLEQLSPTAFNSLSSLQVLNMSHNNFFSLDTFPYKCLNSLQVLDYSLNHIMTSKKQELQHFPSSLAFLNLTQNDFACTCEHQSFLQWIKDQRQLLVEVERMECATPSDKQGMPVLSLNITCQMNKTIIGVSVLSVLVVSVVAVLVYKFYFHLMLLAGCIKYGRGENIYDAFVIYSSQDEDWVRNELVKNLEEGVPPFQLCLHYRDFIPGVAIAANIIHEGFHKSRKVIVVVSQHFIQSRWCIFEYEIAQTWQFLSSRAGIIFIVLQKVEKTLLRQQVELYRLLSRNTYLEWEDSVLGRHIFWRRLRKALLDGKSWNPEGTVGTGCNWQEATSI

Molecule	Kd (TLR4 ECD (Homo sapiens) [1]) [nM]	Kd (TLR4 ECD (Homo sapiens) [2]) [nM]	Kd [3] [nM]	Kd [4] [nM]
LOS·MD-2 (from UniProt Q9Y6Y9)	0.2	0.2	–	–
B1	–	–	0.367 ± 0.136	0.117
